# B1: E. coli frataxin CyaY (protein)
# chain: MNDSEFHRLADQLWLTIEERLDDWDGDSDIDCEINGGVLTITFENGSKIIINRQEPLHQVWLATKQGGYHFDLKGDEWICDRSGETFWDLLEQAATQQAGETVSFR
# Tests used:
# [1] = molecular target: P27838; assay: dynamic light scattering; CyaY with Fe2+ 6:1 (DFO also 8:1) for 15 min, then chelator (deferiprone, DFO or BIPY) at 3 times the amount of iron; conditions: other: dynamic light scattering
# [2] = molecular target: P27838; assay: dynamic light scattering; CyaY 2 mg/ml (0.16 mM) with ammonium iron (II) sulfate, Fe2+:protein 1:1, 2:1, 4:1, 6:1, 8:1, 10:1; 1 h at 30°C; volume distribution; conditions: other: dynamic light scattering
protein,measurement,setting,value
B1,"% of particles in the monomer range (hydrodynamic radius 1.6–2.1 nm), with iron (Fe2+ 6:1) and BIPY",[1],76%
same,"% of particles in the monomer range (hydrodynamic radius 1.6–2.1 nm), with iron (Fe2+ 6:1) and DFO",[1],93%
same,"% of particles with hydrodynamic radius 2.2–2.9 nm (smaller oligomers), with iron (Fe2+ 6:1) and deferiprone",[1],95%
same,"% of particles with hydrodynamic radius 6.0–8.5 nm (oligomers), with iron (Fe2+ 6:1) and BIPY",[1],24%
same,"% of particles with hydrodynamic radius 6.0–8.5 nm (oligomers), with iron (Fe2+ 6:1) and DFO",[1],7%
same,"% of particles with hydrodynamic radius 8.5–14 nm (oligomers), with iron (Fe2+ 6:1) and deferiprone",[1],5%
same,"% of particles with hydrodynamic radius 8.5–14 nm (oligomers), with iron (Fe2+ 8:1) and DFO",[1],"(8.5–14 nm, 100%, Fig 3B)"
same,"% of particles with hydrodynamic radius 3.0–5.9 nm (oligomers), with iron (Fe2+ 6:1)",[2],77%
same,"% of particles with hydrodynamic radius 6–8.5 nm (oligomers), with iron (Fe2+ 8:1)",[2],about 74% of the particles having a hydrodynamic radius in the range of 6–8.5 nm
same,"% of particles with hydrodynamic radius 8.5–14 nm (oligomers), with iron (Fe2+ 6:1)",[2],23%
same,"% of particles with hydrodynamic radius 8.5–14 nm (oligomers), with iron (Fe2+ 8:1)",[2],"(25% and 1%, respectively, not shown)"
same,"% of particles with hydrodynamic radius 8.5–14 nm (oligomers), with iron (Fe2+ 10:1)",[2],8.5–14 nm (83%)
same,"% of particles with hydrodynamic radius 26–40 nm (oligomers), with iron (Fe2+ 10:1)",[2],26–40 nm (17%)
same,"% of particles with hydrodynamic radius >100 nm, with iron (Fe2+ 8:1)",[2],"(25% and 1%, respectively, not shown)"

# From paper PMC5714350
